Assay results taken from US20250134956A1 (published 2025).
Numbering of substitutions follows the chain as printed.

B1: TCR of SEQ ID NOs 10 and 11 (TCR, V domains shown)
Valpha: KQEVTQIPAALSVPEGENLVLNCSFTDSAIYNLQWFRQDPGKGLTSLLLIQSSQREQTSGRLNASLDKSSGRSTLYIAASQPGDSATYLCAVTTQGGSEKLVFGKGTKLTVNP
Vbeta: NAGVTQTPKFQVLKTGQSMTLQCAQDMNHEYMSWYRQDPGMGLRLIHYSVGAGITDQGEVPNGYNVSRSTTEDFPLRLLSAAPSQTSVYFCASSYSDRGYSPLHFGNGTRLTVT
B2: TCR of SEQ ID NOs 14 and 15 (TCR, V domains shown)
Valpha: KQEVTQIPAALSVPEGENLVLNCSFTDSAIYNLQWFRQDPGKGLTSLLLIQSSQREQTSGRLNASLDKSSGRSTLYIAASQPGDSATYLCAVGGEETSGSRLTFGEGTQLTVNP
Vbeta: B1 Vbeta
B3: TCR of SEQ ID NOs 12 and 13 (TCR, V domains shown)
Valpha: KQEVTQIPAALSVPEGENLVLNCSFTDSAIYNLQWFRQDPGKGLTSLLLIQSSQREQTSGRLNASLDKSSGRSTLYIAASQPGDSATYLCAVMEDSGYALNFGKGTSLLVTP
Vbeta: NAGVTQTPKFQVLKTGQSMTLQCAQDMNHEYMSWYRQDPGMGLRLIHYSVGAGITDKGEVPNGYNVSRLNKREFSLRLESAAPSQTSVYFCASSRTGYYGYTFGSGTRLTVV
B4: TCR of SEQ ID NOs 20 and 21 (TCR, V domains shown)
Valpha: KQEVTQIPAALSVPEGENLVLNCSFTDSAIYNLQWFRQDPGKGLTSLLLIQSSQREQTSGRLNASLDKSSGRSTLYIAASQPGDSATYLCAVNELGRLYFGRGTQLTVWP
Vbeta: NAGVTQTPKFQVLKTGQSMTLQCAQDMNHEYMSWYRQDPGMGLRLIHYSVGAGITDQGEVPNGYNVSRSTTEDFPLRLLSAAPSQTSVYFCASSYSGGYTFGSGTRLTVV
B5: TCR of SEQ ID NOs 16 and 17 (TCR, V domains shown)
Valpha: KQEVTQIPAALSVPEGENLVLNCSFTDSAIYNLQWFRQDPGKGLTSLLLIQSSQREQTSGRLNASLDKSSGRSTLYIAASQPGDSATYLCAVSGNTPLVFGKGTRLSVIA
Vbeta: NAGVTQTPKFRVLKTGQSMTLLCAQDMNHEYMYWYRQDPGMGLRLIHYSVGEGTTAKGEVPDGYNVSRLKKQNFLLGLESAAPSQTSVYFCASSYVGNTEAFFGQGTRLTVV
B6: TCR of SEQ ID NOs 18 and 19 (TCR, V domains shown)
Valpha: B5 Valpha with V92P
Vbeta: B5 Vbeta with Y95F, V96L

Target: T1, Kita-kyushu lung cancer antigen 1 (CT83, KKLC1, CXorf61) peptide on HLA-A*02 (human)
T1 peptide: KLVELEHTLL
Test: binding, other

Binding result, recognises:
B1
B2
B3

Target: T2, Kita-kyushu lung cancer antigen 1 (CT83, KKLC1, CXorf61) peptide on HLA-A*02 (human)
T2 peptide: RILVNLSMV
Test: binding, other

Binding result, recognises:
B4
B5
B6
